Target: Gab2 608-620 (Homo sapiens), Q9UQC2
Test: flow

Row | Binder | Kd [nM]
1 | SHP2 N-SH2, Q06124 (protein) WFHPNITGVEAENLLLTRGVDGSFLARPSKSNPGDFALSVRRNGAVTHIKIQNTGDYYDLYGGEKFATLAELVQYYMEHHGQLKEKNGDVIELKYPL | 1.7
2 | SHP2 N-SH2, Q06124 (protein) WFHPNITGVEAENLLLTRGVDGSFLARPSKSNPGDFSLSVRRNGAVTHIKIQNTGDYYDLYGGEKFATLAELVQYYMEHHGQLKEKNGDVIELKYPL | 5.3

Reference: paper PMC7013464
